In paper doi:10.1101/582635:

B1: recombinant S. cerevisiae Asc1p-ybbR (RACK1 ortholog) (natural protein)
chain: MASNEVLVLRGTLEGHNGWVTSLATSAGQPNLLLSASRDKTLISWKLTGDDQKFGVPVRSFKGHSHIVQDCTLTADGAYALSASWDKTLRLWDVATGETYQRFVGHKSDVMSVDIDKKASMIISGSRDKTIKVWTIKGQCLATLLGHNDWVSQVRVVPNEKADDDSVTIISAGNDKMVKAWNLNQFQIEADFIGHNSNINTLTASPDGTLIASAGKDGEIMLWNLAAKKAMYTLSAQDEVFSLAFSPNRYWLAAATATGIKVFSLDPQYLVDDLRPEFAGYSKAAEPHAVSLAWSADGQTLFAGYTDNVIRVWQVMTAN

Columns and labels:
[1] = target: human 40S ribosomal subunit lacking RACK1 (ΔRACK1 40S) (human (endogenous in HAP1)) (UniProt P23396); test: native gel or EMSA
[2] = target: human 40S ribosomal subunit lacking RACK1 (ΔRACK1 40S) (human (endogenous in HAP1)) (UniProt P23396); test: FRET or BRET

| Molecule | t1/2 (half-life on the 40S subunit) [1] [h] | kobs (fast phase, 75 nM) [2] [s⁻¹] | kon (fast phase) [2] [M⁻¹ s⁻¹] |
| --- | --- | --- | --- |
| RACK1-ybbR expressed in ΔRACK1 HAP1 cells (native, ribosome-bound) (from UniProt P63244 1-317) (natural protein) | 15 |  |  |
| B1 |  | 0.2 | 2e+06 |
